B1: SC06-415 (scFv)
scFv: EVQLVESGGGLVQPGRSLRLSCAASGFTFDDYAMHWVRQAPGKGLEWVSGISWNSGSIGYADSVKGRFTISRDNAKNSLYLQMNSLRAEDSAVYYCARGGQRFDFWGQGTLVTVSSGTGGSGGTGSGTGGSTQSALTQPPSASGSPGQSVTISCTGTSSDVGGYNYVSWYQQLPGKAPKLLIYDVNNRPSGVSNRFSGSKSGNTASLTISGLQAEDEAEYYCGSSVGSRLRIFGGGTKLTVL
notes: Vl 133-242); also called single-chain phage antibody SC06-415
B2: SC05-187 (scFv)
scFv: EVQLVQSGAEVKKPGESLKISCKGSGYSFTKYWIGWVRQMPGKGLEWMGIIYPGDSDTRYSPSFQGQVTISADKSISTAYLQWSSLKASDTAMYYCARGSGIATGNSFDSWGQGTLVTVSSGTGGSGGTGSGTGGSTQTVVTQEPSLTVSPGGTVTLTCASSTGAVTSGYYPNWFQQKPGQAPRALIYSTSKKHSWTPARFSGSLLGGRAALTLSGAQPEDEADYYCLLSYGGARVFGGGTKLTVL
notes: Vl 138-246); also called single-chain phage antibody SC05-187
B3: SC06-409 (scFv)
scFv: EVQLVQSGAEVKKPGESLKISCKGSGYSFTNYWIGWVRQMPGKGLEWMGIIYPGDSDTRYSPSFQGQVTISADKSISTAYLQWSSLKASDTAMYYCARHTQNKNGMNTFDIWGQGTMVTVSSGTGGSGGTGSGTGGSTQSALTQPPSASGSPGQSVTISCTGTSSDIGGYNYVSWYQQHPGKAPKLMIYEVSNRPPGVSNRFSGSKSGNTASLTISGLQAEDEADYYCSSYSTTTTRVIFGGGTKLTVL
notes: Vl 139-249); also called single-chain phage antibody SC06-409
B4: SC06-252 (scFv)
scFv: EVQLVETGGGLVQPGGSLRLSCAASGLTFSSYAMSWVRQAPGKGLEWVSALSGSTTFYADSVKGRFTISRDNAKNTLYLQMNSLRAEDTAVYYCARGNYYGMDVWGQGTTVTVSSGTGGSGGTGSGTGGSTSYVLTQPPSASGTPGQRVTISCSGSSSNIGKFYVYWYQQFPGAAPKLLIYSNNQRPSGVPDRFSGSKSGTSASLAISGLQSEDEADYYCAAWDGSLNGYVFGTGTKVTVL
notes: Vl 132-241); also called single-chain phage antibody SC06-252
B5: SC06-246 (scFv)
scFv: EVQLVESGGGLIQPGGSLRLSCAASGFTVSSDFMTWVRQAPGRGLEWVSLIYSGGKTNYADSVKGRFTISRDNSRNTLYLQMNSLRAEDTAVYYCARSVCSTISCSKLDDWGQGTLVTVSSGTGGSGGTGSGTGGSTQAVLTQPSSVSVAPGQTARITCGGNNIGRKSVHWYQQKPGLAPVLVVNDNSDRPSGIPARFSGSNSGNTATLTISRVEAGDEADYYCHVWGSSRDHYVFGTGTKVTVL
notes: Vl 138-245); also called single-chain phage antibody SC06-246
B6: SC06-043 (scFv)
scFv: EVQLVESGAEVKKPGESLKISCKGSGYSFTSYWIGWVRQMPGKGLEWMGIIYPGDSDTRYSPSFQGQVTISADKSISTAYLQWSSLKASDTAMYYCARRYCSGGTCSDGFDIWGQGTMVTVSSGTGGSGGTGSGTGGSTQSALTQPPSASGSPGQSVTISCTGTSSDVGGYNYVSWYQQHPGKAPKLMIYEVSKRPSGVPDRFSGSKSGNTASLTVSGLQAEDEADYYCSSYAGSNNLVFGGGTKLTVL
notes: Vl 140-249); also called single-chain phage antibody SC06-043
B7: SC05-179 (scFv)
scFv: EVQLVESGGGLVKPGGSLGLSCAASGFFFSDYSMSWIRQAPGKGLEWLSNISGSGHSTKYAESMRGRITISRDNAKKSLSLQLNSLRAEDTAVYFCVRGGGYRMDVWGQGTTVTVSSGTGGSGGTGSGTGGSTQSALTQPRSVPGSPGQSVTISCTGTSSDVGGYNYVSWYQQHPGKAPKLMIYDVSKRPSGVPDRFSGSKSGNTASLTVSGLQAEDEADYYCSSYAGSNNFVVFGGGTKLTVL
notes: Vl 134-244); also called single-chain phage antibody SC05-179
B8: SC06-429 (scFv)
scFv: QVQLVQSGAEVKNPGESLKISCKGSGYTFTSYWIGWVRQMPGKGLEWMGSIYPGDSDTRYSPSFQGQVTISVDKSISTAYLQWSSLKASDTAMYYCARQYRAGSTTRFDPWGQGTLVTVSSGTGGSGGTGSGTGGSTDVVMTQSPLSLPVTPGEPASISCRSSQSLRHRNGNNYLDWYLQKPGQSPQLLIYLGSNRASGVPDRFSGSGSGTDFTLKISRVEAEDVGIYYCMQALQTPLTFGGGTKVEIK
notes: Vl 138-249); also called single-chain phage antibody SC06-429
B9: SC06-049 (scFv)
scFv: QVQLVQSGAEVKKPGESLKISCKGSGYSFTSYWIGWVRQMPGKGLEWMGIIYPGDSDTRYSPSFQGQVTISADKSIGTAYLQWSSLKASDTAMYYCARLFRVRGGHFDSWGQGTLVTVSSGTGGSGGTGSGTGGSTQSALTQPASVSGSPGQSITISCTGTNSDVGGYNYVSWYQQHPGKAPKLLIYDVTNRPSGVSNRFSASKSGNTASLTISGLQAEDEADYYCSSFTSSSTRVFGGGTKLTVL
notes: Vl 137-246); also called single-chain phage antibody SC06-049
B10: SC06-432 (scFv)
scFv: QLQLQESGPGLVKPSQTLSLTCTVSGGSISSGGYYWSWIRQHPGKGLEWIGYIYYSGSTYYNPSLKSRVTISVDTSKNQFSLKLSSVTAADTAVYYCARERILDRMNDYWGQGTLVTVSSGTGGSGGTGSGTGGSTQSVVTQPPSVSGAPGQRVTISCTGSSSNIGAGYDVHWYQQLPGTAPKLLIYGNSNRPSGVPDRFSGSKSGTSASLAITGLQAEDEADYYCQSSDSSLNILFGGGTKLTVL
notes: Vl 137-246); also called single-chain phage antibody SC06-432
B11: SC06-016 (scFv)
scFv: QVQLVQSGPEVKKPGASVTVSCKASGYSFSSYGISWVRQAPGQGLEWMGRIIPVGGNTLYSQMFQGRVTMTSDTSTSTVYLELSSLRSEDTAVYFCARDGGRWQFDYWGQGTLVTVSSGTGGSGGTGSGTGGSTDIQLTQSPSSVSASVGDRVTITCRASQGISNWLAWYQQKPGKAPELLIYAASSLQSGVPPRFSGSASGTDFTLTISSLQPEDFATYYCQQSKNFPYTFGQGTKVEIK
notes: Vl 135-241); also called single-chain phage antibody SC06-016
B12: SC06-242 (scFv)
scFv: EVQLVESGPGLVKPSETLSLTCTVSGGSISSYYWSWIRQPPGKGLEWIGYIYYTGTTNYNPSLNSRVTISADTSKNQFSLKLSSVTAADTAVYYCARGGQTAGVWGKGTTVTVSSGTGGSGGTGSGTGGSTQSVLTQPPSVSVAPGQTARITCGGYNIGRKSVHWYQQKPGLAPVLVVYDNSDRPSGIPARFSGSNSGNTATLTISGTQAMDEADYYCQAWDRGTAVFGTGTKVTVL
notes: Vl 132-237); also called single-chain phage antibody SC06-242
B13: SC05-159 (scFv)
scFv: QVQLVQSGAEVKKPGATVKISCKVSGYTFTDYYMHWVQQAPGKGLEWMGLVDPEDGETIYAEKFQGRVTITADTSTDTAYMELSSLRSDDTAVYYCARAEVMTTINNWYFDLWGRGTLVTVSSGTGGSGGTGSGTGGSTSYVLTQPPSASGTPGQRVTISCSGSSSNIGSNNVSWYQQLPGTAPKLLIYSNNQRPSGVPDRFSGSKSGTSASLAISGLQSEDEADYYCAAWDDSLNGWVFGGGTKLTVL
notes: Vl 140-249); also called single-chain phage antibody SC05-159

Each binder was assayed against T1, bovine serum albumin (BSA) (bovine, UniProt P02769 25-607) (assay: phage ELISA, BSA coated).
T1 construct: Control antigen coated at 1% in PBS (pH 7.4); also called negative control antigen
Description: (§1) Selected single-chain phage antibodies that were obtained in the screens described above were validated in ELISA for specific enterococcal binding activity, i.e. binding to one or more enterococcal strains prepared as described supra. 2.5×10⁸ bacteria were coated overnight at 4° C. to Maxisorp™ ELISA plates in 50 μl 50 mM carbonate buffer, pH 9.6. As negative controls, the complex antigens 2% ELK and 1% BSA both in PBS (pH 7.4) were coated. Wells were washed in PBS containing 0.1% (v/v) Tween-20 and blocked with 300 μl PBS containing 2% ELK for at least 1 hour at room temperature. The selected single-chain phage antibodies were incubated for 15 minutes in an equal volume of PBS containing 2% ELK to obtain blocked phage antibodies. The plates were emptied and the blocked single-chain phage antibodies were added to the wells. Incubation was allowed to proceed for one hour at room temperature, the plates were washed in PBS containing 0.1% (v/v) Tween-20 and bound phage antibodies were detected using an anti-M13 antibody conjugated to peroxidase. Absorbance at 492 nm was measured using a spectrophotometer. As a control, the procedure was performed simultaneously without single-chain phage antibody and with a negative control single-chain phage antibody directed against West Nile virus envelope protein (SC04-374).

T1 sequence (P02769 25-607 limits assumed): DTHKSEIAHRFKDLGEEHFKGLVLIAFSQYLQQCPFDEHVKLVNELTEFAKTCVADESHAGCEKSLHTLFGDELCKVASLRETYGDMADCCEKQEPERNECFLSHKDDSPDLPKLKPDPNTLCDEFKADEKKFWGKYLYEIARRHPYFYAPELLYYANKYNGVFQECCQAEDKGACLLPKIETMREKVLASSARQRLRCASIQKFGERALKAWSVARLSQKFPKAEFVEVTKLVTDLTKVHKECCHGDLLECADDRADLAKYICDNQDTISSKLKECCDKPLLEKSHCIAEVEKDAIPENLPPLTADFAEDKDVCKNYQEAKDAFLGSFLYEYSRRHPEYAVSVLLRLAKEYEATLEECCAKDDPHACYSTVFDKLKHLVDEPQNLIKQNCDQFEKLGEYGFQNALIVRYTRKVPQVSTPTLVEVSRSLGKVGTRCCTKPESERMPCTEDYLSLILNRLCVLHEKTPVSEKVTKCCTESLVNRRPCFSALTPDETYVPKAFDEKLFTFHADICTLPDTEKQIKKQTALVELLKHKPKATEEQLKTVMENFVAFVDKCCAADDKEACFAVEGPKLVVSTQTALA

Binder	binding result
B1	no binding
B2	no binding
B3	no binding
B4	no binding
B5	no binding
B6	no binding
B7	no binding
B8	no binding
B9	no binding
B10	no binding
B11	no binding
B12	no binding
B13	no binding

Each binder was assayed against T1, bovine serum albumin (BSA) (assay: phage ELISA, 1% BSA coated, anti-M13-HRP detection).
Description: as §1

Binder	OD492 nm
B1	0.044 OD492 nm
B2	0.055 OD492 nm
B3	0.055 OD492 nm
B4	0.044 OD492 nm
B5	0.042 OD492 nm
B6	0.045 OD492 nm
B7	0.045 OD492 nm
B8	0.068 OD492 nm
B9	0.042 OD492 nm
B10	0.059 OD492 nm
B11	0.044 OD492 nm
B12	0.043 OD492 nm
B13	0.06 OD492 nm
